Measured values as given in paper doi:10.1101/430827 (bioRxiv, 2018).
Each block holds one molecule with its values, some of them ahead of it.

Key:
[1] = target: M2345/WT IRSp53 heterodimer (UniProt Q9UQB8); test: co-IP
[2] = target: WT/M2345 IRSp53 heterodimer (UniProt Q9UQB8); test: co-IP
[3] = target: FLAG-Eps8/pIRSp53 complex (human | , UniProt Q12929 1-822; Q9UQB8-4 1-521, phosphorylated (pIRSp53, as m4)); test: pull-down
crystal structure = target: the molecule itself; test: crystal structure
2xFLAG-Eps8 = 2xFLAG-Eps8 (human, UniProt Q12929 1-822); test: other fluorescence titration
Sequence of 2xFLAG-Eps8 (Q12929 whole entry): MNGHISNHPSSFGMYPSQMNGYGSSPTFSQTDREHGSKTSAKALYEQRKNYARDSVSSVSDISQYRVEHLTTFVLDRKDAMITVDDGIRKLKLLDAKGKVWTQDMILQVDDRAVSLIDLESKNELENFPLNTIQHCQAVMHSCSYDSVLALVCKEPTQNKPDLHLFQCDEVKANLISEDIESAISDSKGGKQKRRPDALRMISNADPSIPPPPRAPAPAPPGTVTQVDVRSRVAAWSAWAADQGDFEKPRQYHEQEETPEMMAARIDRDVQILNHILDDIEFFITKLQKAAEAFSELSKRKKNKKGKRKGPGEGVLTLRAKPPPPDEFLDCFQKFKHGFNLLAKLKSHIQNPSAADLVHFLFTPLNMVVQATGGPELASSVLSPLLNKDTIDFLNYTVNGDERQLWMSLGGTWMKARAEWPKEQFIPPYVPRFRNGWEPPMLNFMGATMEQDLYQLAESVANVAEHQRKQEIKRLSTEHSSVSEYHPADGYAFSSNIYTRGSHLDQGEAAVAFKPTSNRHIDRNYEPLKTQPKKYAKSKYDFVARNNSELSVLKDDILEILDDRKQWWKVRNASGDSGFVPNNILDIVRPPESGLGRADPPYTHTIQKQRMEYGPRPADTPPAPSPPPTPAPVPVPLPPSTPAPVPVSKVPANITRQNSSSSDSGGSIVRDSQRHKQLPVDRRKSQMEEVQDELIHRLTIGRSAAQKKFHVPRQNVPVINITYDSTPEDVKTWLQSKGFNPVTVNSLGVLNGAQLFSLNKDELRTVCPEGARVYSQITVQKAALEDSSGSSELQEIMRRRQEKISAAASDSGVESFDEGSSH

Sequence of FLAG-Eps8/pIRSp53 complex (Q12929 whole entry, one chain of several): as the sequence (Q12929 whole entry) above

- percent of the amount that coimmunoprecipitates with WT/WT IRSp53 [1]: 50%
- percent of the amount that coimmunoprecipitates with WT/WT IRSp53 [2]: 50%
Molecule: endogenous 14-3-3 (all isoforms included) (from UniProt P27348 1-245) (natural protein)

- binding result [3]: binds
B1: 14-3-3θ (natural protein, human)
chain: MEKTELIQKAKLAEQAERYDDMATCMKAVTEQGAELSNEERNLLSVAYKNVVGGRRSAWRVISSIEQKTDTSDKKLQLIKDYREKVESELRSICTTVLELLDKYLIANATNPESKVFYLKMKGDYFRYLAEVACGDDRKQTIDNSQGAYQEAFDISKKEMQPTHPIRLGLALNFSVFYYEILNNPELACTLAKTAFDEAIAELDTLNEDSYKDSTLIMQLLRDNLTLWTSDSAGEECDAAEGAEN
- binding result (crystal structure): binds

- Kd (2xFLAG-Eps8): 42 nM
B2: pIRSp53FS (natural protein, UniProt Q9UQB8-4 1-521, looked up)
chain: MSLSRSEEMHRLTENVYKTIMEQFNPSLRNFIAMGKNYEKALAGVTYAAKGYFDALVKMGELASESQGSKELGDVLFQMAEVHRQIQNQLEEMLKSFHNELLTQLEQKVELDSRYLSAALKKYQTEQRSKGDALDKCQAELKKLRKKSQGSKNPQKYSDKELQYIDAISNKQGELENYVSDGYKTALTEERRRFCFLVEKQCAVAKNSAAYHSKGKELLAQKLPLWQQACADPSKIPERAVQLMQQVASNGATLPSALSASKSNLVISDPIPGAKPLPVPPELAPFVGRMSAQESTPIMNGVTGPDGEDYSPWADRKAAQPKSLSPPQSQSKLSDSYSNTLPVRKSVTPKNSYATTENKTLPRSSSMAAGLERNGRMRVKAIFSHAAGDNSTLLSFKEGDLITLLVPEARDGWHYGESEKTKMRGWFPFSYTRVLDSDGSDRLHMSLQQGKSSSTGNLLDKDDLAIPPPDYGAASRAFPAQTASGFKQRPYSVAVPAFSQGLDDYGARSMSSGSGTLVCTV
modifications: natively phosphorylated in HEK293T cells; C230 and C519 labeled with the donor/acceptor pair fluorescein maleimide/rhodamine maleimide
